Twelve proteins from publication PMC6006169, “Conformational switching in the coiled-coil domains of a proteasomal ATPase regulates substrate processing” (Nature Communications, 2018) can be followed below.

The labels stand for the following.
B1: PAN 80+66C (enzyme, Methanococcus jannaschii, UniProt Q58576 1-430, looked up)
chain: MVFEEFISTELKKEKKAFTEEFKEEKEINDNSNLKNDLLKEELQEKARIAELESRILKLELEKKECERENLQLMKENEICRRELDRMRVPPLIVGTVVDKVGERKVVVKSSTGPSFLVNVSHFVNPDDLAPGKRVCLNQQTLTVVDVLPENKDYRAKAMEVDERPNVRYEDIGGLEKQMQEIREVVELPLKHPELFEKVGIEPPKGILLYGPPGTGKTLLAKAVATETNATFIRVVGSELVKKFIGEGASLVKDIFKLAKEKAPSIIFIDEIDAIAAKRTDALTGGDREVQRTLMQLLAEMDGFDARGDVKIIGATNRPDILDPAILRPGRFDRIIEVPAPDEKGRLEILKIHTRKMNLAEDVNLEEIAKMTEGCVGAELKAICTEAGMNAIRELRDYVTMDDFRKAVEKIMEKKKVKVKEPAHLDVLYR
notes: Expressed from pRSETA; no tag named; source: E. coli BL21-DE3-RIL, purified (heat precipitation, anion exchange, size exclusion)
B2: PAN 87+73C (enzyme, Methanococcus jannaschii, UniProt Q58576 1-430, looked up)
chain: MVFEEFISTELKKEKKAFTEEFKEEKEINDNSNLKNDLLKEELQEKARIAELESRILKLELEKKELERENLQCMKENEILRRELDRCRVPPLIVGTVVDKVGERKVVVKSSTGPSFLVNVSHFVNPDDLAPGKRVCLNQQTLTVVDVLPENKDYRAKAMEVDERPNVRYEDIGGLEKQMQEIREVVELPLKHPELFEKVGIEPPKGILLYGPPGTGKTLLAKAVATETNATFIRVVGSELVKKFIGEGASLVKDIFKLAKEKAPSIIFIDEIDAIAAKRTDALTGGDREVQRTLMQLLAEMDGFDARGDVKIIGATNRPDILDPAILRPGRFDRIIEVPAPDEKGRLEILKIHTRKMNLAEDVNLEEIAKMTEGCVGAELKAICTEAGMNAIRELRDYVTMDDFRKAVEKIMEKKKVKVKEPAHLDVLYR
notes: Expressed from pRSETA; no tag named; also called PAN 87C+73C; source: E. coli BL21-DE3-RIL, purified (heat precipitation, anion exchange, size exclusion)
B3: PAN-M87C (proteasome-activating nucleotidase, M87C mutant) (enzyme, Methanococcus jannaschii, UniProt Q58576 1-430, looked up)
chain: MVFEEFISTELKKEKKAFTEEFKEEKEINDNSNLKNDLLKEELQEKARIAELESRILKLELEKKELERENLQLMKENEILRRELDRCRVPPLIVGTVVDKVGERKVVVKSSTGPSFLVNVSHFVNPDDLAPGKRVCLNQQTLTVVDVLPENKDYRAKAMEVDERPNVRYEDIGGLEKQMQEIREVVELPLKHPELFEKVGIEPPKGILLYGPPGTGKTLLAKAVATETNATFIRVVGSELVKKFIGEGASLVKDIFKLAKEKAPSIIFIDEIDAIAAKRTDALTGGDREVQRTLMQLLAEMDGFDARGDVKIIGATNRPDILDPAILRPGRFDRIIEVPAPDEKGRLEILKIHTRKMNLAEDVNLEEIAKMTEGCVGAELKAICTEAGMNAIRELRDYVTMDDFRKAVEKIMEKKKVKVKEPAHLDVLYR
notes: Expressed from pRSETA; The fraction F1 after partial trypsin proteolysis is called full-length or near full length; also called PAN-87C; M87C PAN; source: E. coli BL21-DE3-RIL, purified (heat precipitation, anion exchange, size exclusion)
B4: PAN 80C (enzyme, Methanococcus jannaschii, UniProt Q58576 1-430, looked up)
chain: MVFEEFISTELKKEKKAFTEEFKEEKEINDNSNLKNDLLKEELQEKARIAELESRILKLELEKKELERENLQLMKENEICRRELDRMRVPPLIVGTVVDKVGERKVVVKSSTGPSFLVNVSHFVNPDDLAPGKRVCLNQQTLTVVDVLPENKDYRAKAMEVDERPNVRYEDIGGLEKQMQEIREVVELPLKHPELFEKVGIEPPKGILLYGPPGTGKTLLAKAVATETNATFIRVVGSELVKKFIGEGASLVKDIFKLAKEKAPSIIFIDEIDAIAAKRTDALTGGDREVQRTLMQLLAEMDGFDARGDVKIIGATNRPDILDPAILRPGRFDRIIEVPAPDEKGRLEILKIHTRKMNLAEDVNLEEIAKMTEGCVGAELKAICTEAGMNAIRELRDYVTMDDFRKAVEKIMEKKKVKVKEPAHLDVLYR
notes: as for B1
B5: PAN 73+66C (enzyme, Methanococcus jannaschii, UniProt Q58576 1-430, looked up)
chain: MVFEEFISTELKKEKKAFTEEFKEEKEINDNSNLKNDLLKEELQEKARIAELESRILKLELEKKECERENLQCMKENEILRRELDRMRVPPLIVGTVVDKVGERKVVVKSSTGPSFLVNVSHFVNPDDLAPGKRVCLNQQTLTVVDVLPENKDYRAKAMEVDERPNVRYEDIGGLEKQMQEIREVVELPLKHPELFEKVGIEPPKGILLYGPPGTGKTLLAKAVATETNATFIRVVGSELVKKFIGEGASLVKDIFKLAKEKAPSIIFIDEIDAIAAKRTDALTGGDREVQRTLMQLLAEMDGFDARGDVKIIGATNRPDILDPAILRPGRFDRIIEVPAPDEKGRLEILKIHTRKMNLAEDVNLEEIAKMTEGCVGAELKAICTEAGMNAIRELRDYVTMDDFRKAVEKIMEKKKVKVKEPAHLDVLYR
notes: as for B1
B6: PAN 80+73C (enzyme, Methanococcus jannaschii, UniProt Q58576 1-430, looked up)
chain: MVFEEFISTELKKEKKAFTEEFKEEKEINDNSNLKNDLLKEELQEKARIAELESRILKLELEKKELERENLQCMKENEICRRELDRMRVPPLIVGTVVDKVGERKVVVKSSTGPSFLVNVSHFVNPDDLAPGKRVCLNQQTLTVVDVLPENKDYRAKAMEVDERPNVRYEDIGGLEKQMQEIREVVELPLKHPELFEKVGIEPPKGILLYGPPGTGKTLLAKAVATETNATFIRVVGSELVKKFIGEGASLVKDIFKLAKEKAPSIIFIDEIDAIAAKRTDALTGGDREVQRTLMQLLAEMDGFDARGDVKIIGATNRPDILDPAILRPGRFDRIIEVPAPDEKGRLEILKIHTRKMNLAEDVNLEEIAKMTEGCVGAELKAICTEAGMNAIRELRDYVTMDDFRKAVEKIMEKKKVKVKEPAHLDVLYR
notes: as for B1
B7: PAN 66C (enzyme, Methanococcus jannaschii, UniProt Q58576 1-430, looked up)
chain: MVFEEFISTELKKEKKAFTEEFKEEKEINDNSNLKNDLLKEELQEKARIAELESRILKLELEKKECERENLQLMKENEILRRELDRMRVPPLIVGTVVDKVGERKVVVKSSTGPSFLVNVSHFVNPDDLAPGKRVCLNQQTLTVVDVLPENKDYRAKAMEVDERPNVRYEDIGGLEKQMQEIREVVELPLKHPELFEKVGIEPPKGILLYGPPGTGKTLLAKAVATETNATFIRVVGSELVKKFIGEGASLVKDIFKLAKEKAPSIIFIDEIDAIAAKRTDALTGGDREVQRTLMQLLAEMDGFDARGDVKIIGATNRPDILDPAILRPGRFDRIIEVPAPDEKGRLEILKIHTRKMNLAEDVNLEEIAKMTEGCVGAELKAICTEAGMNAIRELRDYVTMDDFRKAVEKIMEKKKVKVKEPAHLDVLYR
notes: as for B1
B8: PAN 87+80C (enzyme, Methanococcus jannaschii, UniProt Q58576 1-430, looked up)
chain: MVFEEFISTELKKEKKAFTEEFKEEKEINDNSNLKNDLLKEELQEKARIAELESRILKLELEKKELERENLQLMKENEICRRELDRCRVPPLIVGTVVDKVGERKVVVKSSTGPSFLVNVSHFVNPDDLAPGKRVCLNQQTLTVVDVLPENKDYRAKAMEVDERPNVRYEDIGGLEKQMQEIREVVELPLKHPELFEKVGIEPPKGILLYGPPGTGKTLLAKAVATETNATFIRVVGSELVKKFIGEGASLVKDIFKLAKEKAPSIIFIDEIDAIAAKRTDALTGGDREVQRTLMQLLAEMDGFDARGDVKIIGATNRPDILDPAILRPGRFDRIIEVPAPDEKGRLEILKIHTRKMNLAEDVNLEEIAKMTEGCVGAELKAICTEAGMNAIRELRDYVTMDDFRKAVEKIMEKKKVKVKEPAHLDVLYR
notes: as for B1
B9: PAN 87+73+59C triple mutant (enzyme, Methanococcus jannaschii, UniProt Q58576 1-430, looked up)
chain: MVFEEFISTELKKEKKAFTEEFKEEKEINDNSNLKNDLLKEELQEKARIAELESRILKCELEKKELERENLQCMKENEILRRELDRCRVPPLIVGTVVDKVGERKVVVKSSTGPSFLVNVSHFVNPDDLAPGKRVCLNQQTLTVVDVLPENKDYRAKAMEVDERPNVRYEDIGGLEKQMQEIREVVELPLKHPELFEKVGIEPPKGILLYGPPGTGKTLLAKAVATETNATFIRVVGSELVKKFIGEGASLVKDIFKLAKEKAPSIIFIDEIDAIAAKRTDALTGGDREVQRTLMQLLAEMDGFDARGDVKIIGATNRPDILDPAILRPGRFDRIIEVPAPDEKGRLEILKIHTRKMNLAEDVNLEEIAKMTEGCVGAELKAICTEAGMNAIRELRDYVTMDDFRKAVEKIMEKKKVKVKEPAHLDVLYR
notes: Expressed from pRSETA; no tag named; also called PAN 87C+73C+59C; source: E. coli BL21-DE3-RIL, purified (heat precipitation, anion exchange, size exclusion)
B10: PAN 87+59C (enzyme, Methanococcus jannaschii, UniProt Q58576 1-430, looked up)
chain: MVFEEFISTELKKEKKAFTEEFKEEKEINDNSNLKNDLLKEELQEKARIAELESRILKCELEKKELERENLQLMKENEILRRELDRCRVPPLIVGTVVDKVGERKVVVKSSTGPSFLVNVSHFVNPDDLAPGKRVCLNQQTLTVVDVLPENKDYRAKAMEVDERPNVRYEDIGGLEKQMQEIREVVELPLKHPELFEKVGIEPPKGILLYGPPGTGKTLLAKAVATETNATFIRVVGSELVKKFIGEGASLVKDIFKLAKEKAPSIIFIDEIDAIAAKRTDALTGGDREVQRTLMQLLAEMDGFDARGDVKIIGATNRPDILDPAILRPGRFDRIIEVPAPDEKGRLEILKIHTRKMNLAEDVNLEEIAKMTEGCVGAELKAICTEAGMNAIRELRDYVTMDDFRKAVEKIMEKKKVKVKEPAHLDVLYR
notes: as for B1
B11: PAN 80+59C (enzyme, Methanococcus jannaschii, UniProt Q58576 1-430, looked up)
chain: MVFEEFISTELKKEKKAFTEEFKEEKEINDNSNLKNDLLKEELQEKARIAELESRILKCELEKKELERENLQLMKENEICRRELDRMRVPPLIVGTVVDKVGERKVVVKSSTGPSFLVNVSHFVNPDDLAPGKRVCLNQQTLTVVDVLPENKDYRAKAMEVDERPNVRYEDIGGLEKQMQEIREVVELPLKHPELFEKVGIEPPKGILLYGPPGTGKTLLAKAVATETNATFIRVVGSELVKKFIGEGASLVKDIFKLAKEKAPSIIFIDEIDAIAAKRTDALTGGDREVQRTLMQLLAEMDGFDARGDVKIIGATNRPDILDPAILRPGRFDRIIEVPAPDEKGRLEILKIHTRKMNLAEDVNLEEIAKMTEGCVGAELKAICTEAGMNAIRELRDYVTMDDFRKAVEKIMEKKKVKVKEPAHLDVLYR
notes: as for B1
B12: PAN 73C (enzyme, Methanococcus jannaschii, UniProt Q58576 1-430, looked up)
chain: MVFEEFISTELKKEKKAFTEEFKEEKEINDNSNLKNDLLKEELQEKARIAELESRILKLELEKKELERENLQCMKENEILRRELDRMRVPPLIVGTVVDKVGERKVVVKSSTGPSFLVNVSHFVNPDDLAPGKRVCLNQQTLTVVDVLPENKDYRAKAMEVDERPNVRYEDIGGLEKQMQEIREVVELPLKHPELFEKVGIEPPKGILLYGPPGTGKTLLAKAVATETNATFIRVVGSELVKKFIGEGASLVKDIFKLAKEKAPSIIFIDEIDAIAAKRTDALTGGDREVQRTLMQLLAEMDGFDARGDVKIIGATNRPDILDPAILRPGRFDRIIEVPAPDEKGRLEILKIHTRKMNLAEDVNLEEIAKMTEGCVGAELKAICTEAGMNAIRELRDYVTMDDFRKAVEKIMEKKKVKVKEPAHLDVLYR
notes: as for B1

The first data set concerns the molecule itself. In words: native gel or EMSA; native-PAGE of oxidized PAN cysteine mutants.
Take B1: the stoichiometry N (as a rule, a count of units in the complex or per binding partner) was 6.

Consider B2, for which the “stoichiometry N” value was determined as 6.

For B3, the “stoichiometry N” value was 6.

Another data set concerns the molecule itself. The data set can be described thus: cross-linking; disulfide cross-linking of engineered cysteines; 1 mM tetrathionate, 1-2 h, room temperature, 50 mM Tris pH 7.5 + 5% glycerol, no nucleotide, PAN at or below 0.25 mg/ml; desalted on G50, non-reducing SDS-PAGE, Coomassie, densitometry of monomers vs. dimers.
Turning to B4, the binding result is “binds”.

Take B5: the binding result is recorded as “binds”.

For B6, the binding result is reported as “binds”.

For the protein B1, the percent cross-linked was determined as 72%.

With B7, the binding result is on record as “binds”.

Turning to B8, the binding result is “binds”.

As for B9, the percent cross-linked is 74%.

Take B10: the binding result is reported as “binds”.

Consider B11, for which the binding result is on record as “binds”.

For the protein B12, the binding result is “binds”.
